Data taken from patent US20210292762, “ICAM-1 APTAMERS, DIAGNOSTIC AND THERAPEUTIC USES THEREOF” (BRACCO IMAGING S.P.A., published 2021).

Tests used:
ICAM-1 [1] = biological target: T1, ICAM-1 (Homo sapiens, UniProt P05362 P05362:28-532); assay: flow; COS7-ICAM-1 cells, 37 C 30 min, yeast tRNA 200 ug/mL pre-treatment, n=6; details: tags: full-length human ICAM-1 cDNA (pCMV6-ICAM-1) transiently expressed in COS7 cells; label: 5'-Alexa Fluor 488
[2] = biological target: ICAM-1 (endogenous, TNFalpha-induced) (UniProt P05362 P05362:28-532); assay: flow; TNFalpha-stimulated HMEC-1 cells, 37 C 30 min, yeast tRNA 200 ug/mL pre-treatment, n=3; details: tags: HMEC-1 cells stimulated with TNFalpha 48 h; label: 5'-Alexa Fluor 488
Method: HMEC-1 cells were stimulated with TNFalpha for 48h to induce ICAM-1 expression.

ICAM-1 [3] = biological target: T1, ICAM-1; assay: RT-qPCR cell binding, 50 nM RNA, 37 C 15 min; details: tags: full-length human ICAM-1 cDNA (pCMV6-ICAM-1) transiently expressed in COS7 cells
Method: To the aim of testing if the short aptamer 10.T (SEQ ID NO: 1) contained the active site of the original molecule 12c-10 (SEQ ID NO: 2) and preserved high binding and affinity to COS7-ICAM-1, binding assays were performed maintaining the same conditions used for long aptamers screening.
The RNA sequence 10.T was incubated at 50 nM, as final concentration, for 15 minutes at 37° C. on COS7-WT and COS7-ICAM-1. The ratio comparing binding values of COS7-ICAM-1 over COS7-WT (fold change) is reported in FIG. 5, showing a value of 2.2.

ICAM-1 [4] = biological target: T1, ICAM-1; assay: RT-qPCR cell binding on COS7-ICAM-1, 37 C 15 min, yeast tRNA 200 ug/mL pre-treatment; details: tags: full-length human ICAM-1 cDNA (pCMV6-ICAM-1) transiently expressed in COS7 cells
Method: The same experiment was carried out with the unrelated aptamer A10, as negative control (sequence disclosed in Lupold S. E. et al., Cancer Res. 2002, 62, 4029-4033). The binding was evaluated by RT-qPCR.

ICAM-1 [5] = biological target: T1, ICAM-1; assay: RT-qPCR cell binding, 50 nM RNA, 37 C 15 min, yeast tRNA pre-treatment; details: tags: full-length human ICAM-1 cDNA (pCMV6-ICAM-1) transiently expressed in COS7 cells
Method: Following the analysis of the enriched sequences, binding assays by RT-qPCR were performed in order to select the sequences able to bind COS7-ICAM-1. Essentially, DNA sequences were amplified and transcribed. Then, RNA sequences were incubated at 50 nM, as final concentration, for 15 minutes at 37° C., after pre-treatment with yeast tRNA 200 μg/mL, on COS7-WT and COS7-ICAM-1. Following incubation, cells were washed 3 times with PBS and recovered in TRIsure reagent. An RNA sequence used as reference control was spotted in each point for the normalization. A fold ratio was calculated comparing binding values of COS7-ICAM-1 over COS7-WT. Twelve sequences representatives of couples or groups of identical sequences were screened. Those with higher fold ratio were chosen for further analysis performing experimental triplicates.

T1 sequence (P05362 28-532, one chain of several): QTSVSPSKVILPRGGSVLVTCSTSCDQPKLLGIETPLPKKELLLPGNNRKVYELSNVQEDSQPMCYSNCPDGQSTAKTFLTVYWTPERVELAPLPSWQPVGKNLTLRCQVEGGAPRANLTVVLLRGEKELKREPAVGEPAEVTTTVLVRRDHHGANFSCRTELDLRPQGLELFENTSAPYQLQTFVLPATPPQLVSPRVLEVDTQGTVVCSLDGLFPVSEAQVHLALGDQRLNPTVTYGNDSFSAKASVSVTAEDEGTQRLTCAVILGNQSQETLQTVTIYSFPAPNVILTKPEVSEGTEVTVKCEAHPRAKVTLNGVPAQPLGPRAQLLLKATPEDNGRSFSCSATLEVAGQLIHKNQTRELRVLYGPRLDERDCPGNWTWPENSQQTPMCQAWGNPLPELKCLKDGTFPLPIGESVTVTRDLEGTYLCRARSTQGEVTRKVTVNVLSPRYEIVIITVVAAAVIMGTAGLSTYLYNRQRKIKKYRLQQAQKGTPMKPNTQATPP
Sequence of ICAM-1 (endogenous, TNFalpha-induced) (P05362 28-532, one chain of several): as above

B1: Alexa488-10.T (ssRNA)
RNA: UCAUGAUACGUUGCGUGAGCAACUGCGGCGCUAAAGUUUGGUUGACUAGUACAUG
modifications: 2'-F pyrimidines; 5'-C12 amino linker
Kd (ICAM-1 [1]): 116 nM
Kd [2]: 106 nM

B2: 10.T (ssRNA)
RNA: UCAUGAUACGUUGCGUGAGCAACUGCGGCGCUAAAGUUUGGUUGACUAGUACAUG
modifications: 2'-F pyrimidines
binding signal (ICAM-1 [3]): 2.2 fold COS7-ICAM-1 over COS7-WT
Kd (ICAM-1 [4]): 376 nM

B3: 12c-10 (ssRNA)
RNA: GGGAAGAGAAGGACAUAUGAUCAUGAUACGUUGCGUGAGCAACUGCGGCGCUAAAGUUUGGUUGACUAGUACAUGACCACUUGA
modifications: 2'-F pyrimidines
binding signal (ICAM-1 [5]): 3.13 fold COS7-ICAM-1 over COS7-WT
